Reference: patent USRE46211

molecular target: mouse myosin IIb (myosin heavy chain IIb), 200 kDa skeletal muscle protein (mouse) (UniProt Q5SX39); assay: cell-based or functional assay
UniProt Q5SX39, sequence (Q5SX39 whole entry): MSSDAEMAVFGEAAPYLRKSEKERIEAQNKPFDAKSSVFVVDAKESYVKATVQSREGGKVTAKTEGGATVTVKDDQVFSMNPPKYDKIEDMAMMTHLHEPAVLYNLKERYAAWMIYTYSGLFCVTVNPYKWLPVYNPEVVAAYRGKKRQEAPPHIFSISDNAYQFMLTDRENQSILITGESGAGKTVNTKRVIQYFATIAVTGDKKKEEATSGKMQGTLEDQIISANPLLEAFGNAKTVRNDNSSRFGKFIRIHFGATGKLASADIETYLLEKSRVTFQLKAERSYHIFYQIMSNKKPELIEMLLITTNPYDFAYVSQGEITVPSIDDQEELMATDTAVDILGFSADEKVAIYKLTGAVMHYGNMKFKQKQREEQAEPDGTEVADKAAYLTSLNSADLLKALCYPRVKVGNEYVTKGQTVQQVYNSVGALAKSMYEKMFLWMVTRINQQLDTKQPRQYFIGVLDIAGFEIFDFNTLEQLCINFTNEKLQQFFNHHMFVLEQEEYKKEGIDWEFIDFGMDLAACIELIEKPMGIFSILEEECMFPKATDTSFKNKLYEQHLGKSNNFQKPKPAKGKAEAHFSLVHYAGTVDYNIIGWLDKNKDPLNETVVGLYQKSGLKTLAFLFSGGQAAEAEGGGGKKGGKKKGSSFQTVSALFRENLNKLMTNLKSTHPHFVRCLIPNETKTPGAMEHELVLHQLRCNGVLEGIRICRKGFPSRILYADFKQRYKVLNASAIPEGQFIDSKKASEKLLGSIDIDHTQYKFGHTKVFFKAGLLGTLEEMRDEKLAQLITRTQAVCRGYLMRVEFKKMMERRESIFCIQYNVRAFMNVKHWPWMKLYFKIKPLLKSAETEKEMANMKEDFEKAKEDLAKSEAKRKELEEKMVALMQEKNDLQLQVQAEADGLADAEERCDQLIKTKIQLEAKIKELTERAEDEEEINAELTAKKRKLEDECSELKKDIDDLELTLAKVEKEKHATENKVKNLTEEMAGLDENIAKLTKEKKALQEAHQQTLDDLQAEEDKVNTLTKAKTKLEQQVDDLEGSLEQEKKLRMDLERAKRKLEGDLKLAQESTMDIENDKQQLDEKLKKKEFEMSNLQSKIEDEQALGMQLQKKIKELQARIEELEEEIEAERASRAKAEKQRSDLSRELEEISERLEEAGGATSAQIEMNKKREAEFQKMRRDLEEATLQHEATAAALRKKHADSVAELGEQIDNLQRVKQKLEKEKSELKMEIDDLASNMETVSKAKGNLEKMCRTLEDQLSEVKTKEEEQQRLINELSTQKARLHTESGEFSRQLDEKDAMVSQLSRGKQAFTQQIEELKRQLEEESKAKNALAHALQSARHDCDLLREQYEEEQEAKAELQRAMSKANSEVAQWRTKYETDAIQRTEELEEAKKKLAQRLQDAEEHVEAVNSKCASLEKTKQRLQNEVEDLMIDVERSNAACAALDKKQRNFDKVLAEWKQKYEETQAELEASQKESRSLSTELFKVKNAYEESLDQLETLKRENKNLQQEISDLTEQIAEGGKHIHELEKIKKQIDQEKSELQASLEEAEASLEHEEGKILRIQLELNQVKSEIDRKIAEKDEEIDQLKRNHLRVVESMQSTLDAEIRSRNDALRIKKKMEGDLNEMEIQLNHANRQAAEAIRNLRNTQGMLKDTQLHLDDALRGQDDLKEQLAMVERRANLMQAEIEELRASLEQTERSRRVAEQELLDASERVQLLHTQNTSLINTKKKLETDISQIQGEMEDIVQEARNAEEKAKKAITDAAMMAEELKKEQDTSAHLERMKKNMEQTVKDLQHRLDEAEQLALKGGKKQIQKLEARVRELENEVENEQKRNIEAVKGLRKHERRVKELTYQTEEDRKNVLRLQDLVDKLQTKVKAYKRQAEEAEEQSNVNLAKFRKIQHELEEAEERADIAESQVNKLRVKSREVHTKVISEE

Substance “mAb 3E10 scFv containing 3E10 VH and VkIII (Vk placed N-terminal of VH)” has a localization of intravenously injected scFv fragments in tissues of FVB mice (histology with anti-his6 antibody) of 20%.

molecular target: HP8/HEVIN, extracellular matrix protein (UniProt Q14515); assay: binding of COS-7 expressed antibody to HP8; method and unit not given
UniProt Q14515, sequence (Q14515 17-664 limits assumed): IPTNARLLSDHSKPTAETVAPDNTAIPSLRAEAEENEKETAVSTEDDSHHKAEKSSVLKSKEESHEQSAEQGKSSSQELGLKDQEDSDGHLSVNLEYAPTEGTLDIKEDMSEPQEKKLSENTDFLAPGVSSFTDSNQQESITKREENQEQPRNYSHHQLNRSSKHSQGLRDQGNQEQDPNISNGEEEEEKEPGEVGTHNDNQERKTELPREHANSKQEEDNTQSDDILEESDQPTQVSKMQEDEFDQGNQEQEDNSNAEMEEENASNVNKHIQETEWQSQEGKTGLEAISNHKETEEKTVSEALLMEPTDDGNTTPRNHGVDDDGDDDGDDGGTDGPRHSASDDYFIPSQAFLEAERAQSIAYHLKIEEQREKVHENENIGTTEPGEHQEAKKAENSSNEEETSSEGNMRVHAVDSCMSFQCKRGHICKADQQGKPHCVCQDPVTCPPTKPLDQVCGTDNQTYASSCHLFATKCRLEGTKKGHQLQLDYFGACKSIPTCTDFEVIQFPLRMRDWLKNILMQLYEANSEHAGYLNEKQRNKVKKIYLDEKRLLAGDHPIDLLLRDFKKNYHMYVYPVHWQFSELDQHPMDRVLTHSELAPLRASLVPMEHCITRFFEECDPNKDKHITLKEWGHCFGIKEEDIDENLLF

Compared with “mAb 3E10 VH31 mutant heavy chain with Vk residue 92 mutant light chain (R to N, L CDR3) (antibody)”, “recombinant mAb 3E10, native heavy chain with native (anti-dsDNA kIII) light chain, expressed in COS-7 cells (antibody)” is higher in Antibody Specificity, HP8: 1.21 for the first, 2.02 for the second.

Compared with “mAb 3E10 VH31 mutant heavy chain (D to N at residue 31, H CDR1) with native light chain (antibody)”, “mAb 3E10 VH31 mutant heavy chain with Vk residue 27C mutant light chain (S to D, L CDR1) (antibody)” is lower in Antibody Specificity, HP8: 1.3 for the first, 0.26 for the second.

Compared with “mAb 3E10 VH31 mutant heavy chain with Vk residue 94 mutant light chain (F to D, L CDR3) (antibody)”, “mAb 3E10 VH31 mutant heavy chain with Vk residue 32 mutant light chain (Y to F, L CDR1) (antibody)” is higher in Antibody Specificity, HP8: 0.2 for the first, 2.76 for the second.
